Results published in US6699683B1, “Active site of human gamma glutamy hydrolase” (Health Research Incorporated, priority 1996, dated 2004).
Marks after values point to notes of the source that are not given here.

Experiments:
[1] = test system: wildtype, C19A, C124A and C290A hGH proteins; settings: 0.5 mM iodoacetate for 60 minutes
Protocol: hGH activity in chromatography fractions was measured with 4-NH2-10-CH3PteGlu5 (Schirk Labs, Jona, Switzerland) as previously described (Rhee et al. 1998). The specific activities and reaction kinetics of hGH were determined using varying concentrations of 4-NH2-10-CH3PteGlu2 as substrate (Schirk Labs). Km and Vmax were determined by the method of Hanes (Price and Stevens 1989) with the best fit line calculated using Excel (Microsoft).

[2] = test system: human gamma glutamyl hydrolase (hGH); assay: hGH activity assay with 4-NH2-10-CH3PteGlu2 as substrate (Km, Vmax, specific activity) of E. coli-expressed purified proteins; type: biochemical; settings: for Specific activity (nmol 4-NH2-10-CH3PteGlu2 hydrolyzed/min/mg protein): 200 μM 4-NH2-10-CH3PteGlu2 for 5 minutes; for Specific activity (nmol 4-NH2-10-CH3PteGlu2 hydrolyzed/min/mg protein) / Km / Vmax (nmol 4-NH2-10-CH3PteGlu2 hydrolyzed/min/μg protein): mean ± SD of 3 experiments; for hGH activity (in words): purified E. coli-expressed proteins; for Km: substrate 4-NH2-10-CH3PteGlu2, variable concentrations; for Vmax (nmol 4-NH2-10-CH3PteGlu2 hydrolyzed/min/μg protein): variable 4-NH2-10-CH3PteGlu2 concentrations
Protocol: Mutant plasmids were used to transform E. colistrain BL21(DE3)pLysS to kanamycin resistance. Cultures (20 ml) were grown for 16 hours at 37° C., 225 rpm in tryptone-phosphate broth (Moore et al. 1993), containing 30 μg/ml kanamycin and 34 μg/ml chloramphenicol. An aliquot (6 ml) of this culture was used to inoculate 500 ml of the same medium. Cultures were incubated at 27° C., 225 rpm until the OD600nm was 0.5-0.6. Isopropyl β-D-thiogalactoside (IPTG) was added to a final concentration of 1 mM and cultures were incubated for a further 3 hours. Cells were harvested by centrifugation and stored at −80° C. Cells from 1 liter of broth were resuspended in 50 ml of 50 mM Tris/HCl pH 7.5 buffer containing 500 mM NaCl and Complete protease inhibitor cocktail (Boehringer Mannheim, Indianapolis, Ind.). The mixture was sonicated and clarified by centrifugation at 20,000 g for 30 minutes at 4° C. A 20-60% ammonium sulfate precipitate was resuspended in 50 mM sodium acetate, pH 5.8, 1 mM octyl-β-D-glucoside (OBG) and 5% glycerol (buffer A). After dialysis at 4° C. against buffer A and clarification by centrifugation at 30,000 g, 4° C. for 120 minutes, the dialysate was applied in two aliquots to a Protein Pak SP colummn (1.0 cm×10 cm, Waters Division of Millipore Corp., Milford, Mass.) equilibrated in buffer A. The protein was eluted (1 ml/min) with a linear gradient in buffer A of 0 to 1M NaCl over 60 minutes. Fractions were assayed for hGH activity or for hGH protein by Western blot. Fractions containing hGH were pooled and frozen at −80° C. Wildtype hGH and the C19A, C110A, and C290A mutants eluted as two peaks whereas the C124A mutant eluted as a single peak coincident with the first peak for the other hGH proteins. […] There was 8-10 times more hGH protein in peak 1 than in peak 2. A statistically significant amount (40-82%) of enzyme activity of proteins purified on the SP column was lost when stored either at 4° C. or at −80° C. Thawed aliquots of peak 1 were incubated for 2 hours at 4° C. with 2 ml of pHMB agarose (0.8 μmole/ml agarose) (Sigma Chemical, St. Louis, Mo.) equilibrated in 50 mM sodium acetate pH 5.8, 20 mM OBG, 500 mM NaCl (buffer B). The matrix was poured into a column (0.75 cm×4.5 cm) and washed with buffer B. hGH protein was eluted with buffer B containing additionally 10 mM dithiothreitol and 50 mM β-mercaptoethanol. EDTA (1 mM final) was added to each fraction to inhibit remaining proteases. Fractions containing hGH were pooled and stored at −80° C.
Km and Vmax activities were measured using variable 4-NH2-10-CH3PteGlu2 substrate concentrations. Specific activities were measured using 200 μM 4-NH2-10-CH3PteGlu2 for 5 minutes.

[3] = test system: human gamma glutamyl hydrolase (hGH); assay: Activity of baculovirus-expressed hGH mutants on methotrexate polyglutamates; type: biochemical; settings: mutants expressed in the baculovirus system
Description: This model for the active site of hGH has been tested by preparing the Cys110Ala, His220Ala, Glu222Ala, His171Ala, and His171Asn mutants of hGH. The mutants were expressed in the baculovirus system used for active hGH to facilitate the rapid expression and purification of the proteins. The mutant proteins were characterized for activity on methotrexate polyglutamates. […] The role of His171 in hGH has been examined by preparing the mutant His171Ala and the more conservative mutation His171Asn.

Row | Molecule | Reduction of hGH activity by iodoacetate [1] | Specific activity (nmol 4-NH2-10-CH3PteGlu2 hydrolyzed/min/mg protein) [2] | hGH activity (in words) [2] | Km [2] [µM] | Vmax (nmol 4-NH2-10-CH3PteGlu2 hydrolyzed/min/μg protein) [2] | Activity on methotrexate polyglutamates [3] | Activity on methotrexate tetraglutamate [3]
1 | O=C(O)CI [iodoacetate] | 70-94% |  |  |  |  |  | 
2 | Wildtype: mature human gamma glutamyl hydrolase (SEQ ID NO:1) with N-terminal methionine, expressed in E. coli (protein, listed as Homo sapiens, N-terminal methionine) RPHGDTAKKPIIGILMQKCRNKVMKNYGRYYIAASYVKYLESAGARVVPVRLDLTEKDYEILFKSINGILFPGGSVDLRRSDYAKVAKIFYNLSIQSFDDGDYFPVWGTCLGFEELSLLISGECLLTATDTVDVAMPLNFTGGQLHSRMFQNFPTELLLSLAVEPLTANFHKWSLSVKNFTMNEKLKKFFNVLTTNTDGKIEFISTMEGYKYPVYGVQWHPEKAPYEWKNLDGISHAPNAVNPAFYLAEFFVNEARKKNHHFKSESEEEKALIYQFSPIYTGNISSFQQCYIFD |  | 1913 ± 32 nmol 4-NH2-10-CH3PteGlu2 hydrolyzed/min/mg protein | had activity | 55.2 ± 8.4 | 2.7 ± 0.9 nmol 4-NH2-10-CH3PteGlu2 hydro |  | 
3 | C290A: hGH variant with cysteine 290 replaced by alanine (protein) RPHGDTAKKPIIGILMQKCRNKVMKNYGRYYIAASYVKYLESAGARVVPVRLDLTEKDYEILFKSINGILFPGGSVDLRRSDYAKVAKIFYNLSIQSFDDGDYFPVWGTCLGFEELSLLISGECLLTATDTVDVAMPLNFTGGQLHSRMFQNFPTELLLSLAVEPLTANFHKWSLSVKNFTMNEKLKKFFNVLTTNTDGKIEFISTMEGYKYPVYGVQWHPEKAPYEWKNLDGISHAPNAVNPAFYLAEFFVNEARKKNHHFKSESEEEKALIYQFSPIYTGNISSFQQAYIFD |  | 1406 ± 463 nmol 4-NH2-10-CH3PteGlu2 hydrolyzed/min/mg protein | had activity | 19.5 ± 8.6 | 1.9 ± 0.4 nmol 4-NH2-10-CH3PteGlu2 hydro |  | 
4 | Glu222Ala: hGH mutant with Glu 222 changed to Ala, expressed in the baculovirus system (protein) RPHGDTAKKPIIGILMQKCRNKVMKNYGRYYIAASYVKYLESAGARVVPVRLDLTEKDYEILFKSINGILFPGGSVDLRRSDYAKVAKIFYNLSIQSFDDGDYFPVWGTCLGFEELSLLISGECLLTATDTVDVAMPLNFTGGQLHSRMFQNFPTELLLSLAVEPLTANFHKWSLSVKNFTMNEKLKKFFNVLTTNTDGKIEFISTMEGYKYPVYGVQWHPAKAPYEWKNLDGISHAPNAVNPAFYLAEFFVNEARKKNHHFKSESEEEKALIYQFSPIYTGNISSFQQCYIFD |  |  |  |  |  | greatly reduced activity | 
5 | His171Asn: hGH mutant with His 171 changed to Asn, expressed in the baculovirus system (protein) RPHGDTAKKPIIGILMQKCRNKVMKNYGRYYIAASYVKYLESAGARVVPVRLDLTEKDYEILFKSINGILFPGGSVDLRRSDYAKVAKIFYNLSIQSFDDGDYFPVWGTCLGFEELSLLISGECLLTATDTVDVAMPLNFTGGQLHSRMFQNFPTELLLSLAVEPLTANFNKWSLSVKNFTMNEKLKKFFNVLTTNTDGKIEFISTMEGYKYPVYGVQWHPEKAPYEWKNLDGISHAPNAVNPAFYLAEFFVNEARKKNHHFKSESEEEKALIYQFSPIYTGNISSFQQCYIFD |  |  |  |  |  |  | inactive
6 | H220A: hGH mutant with His 220 changed to Ala, expressed in the baculovirus system (protein) RPHGDTAKKPIIGILMQKCRNKVMKNYGRYYIAASYVKYLESAGARVVPVRLDLTEKDYEILFKSINGILFPGGSVDLRRSDYAKVAKIFYNLSIQSFDDGDYFPVWGTCLGFEELSLLISGECLLTATDTVDVAMPLNFTGGQLHSRMFQNFPTELLLSLAVEPLTANFHKWSLSVKNFTMNEKLKKFFNVLTTNTDGKIEFISTMEGYKYPVYGVQWAPEKAPYEWKNLDGISHAPNAVNPAFYLAEFFVNEARKKNHHFKSESEEEKALIYQFSPIYTGNISSFQQCYIFD |  |  |  |  |  | inactive | 
7 | C124A: hGH variant with cysteine 124 replaced by alanine (protein) RPHGDTAKKPIIGILMQKCRNKVMKNYGRYYIAASYVKYLESAGARVVPVRLDLTEKDYEILFKSINGILFPGGSVDLRRSDYAKVAKIFYNLSIQSFDDGDYFPVWGTCLGFEELSLLISGEALLTATDTVDVAMPLNFTGGQLHSRMFQNFPTELLLSLAVEPLTANFHKWSLSVKNFTMNEKLKKFFNVLTTNTDGKIEFISTMEGYKYPVYGVQWHPEKAPYEWKNLDGISHAPNAVNPAFYLAEFFVNEARKKNHHFKSESEEEKALIYQFSPIYTGNISSFQQCYIFD |  | 725 ± 79^a nmol 4-NH2-10-CH3PteGlu2 hydrolyzed/min/mg protein | had activity | 28.5 ± 3.7 | 1.0 ± 0.1 nmol 4-NH2-10-CH3PteGlu2 hydro |  | 
8 | C19A: hGH variant with cysteine 19 replaced by alanine (protein) RPHGDTAKKPIIGILMQKARNKVMKNYGRYYIAASYVKYLESAGARVVPVRLDLTEKDYEILFKSINGILFPGGSVDLRRSDYAKVAKIFYNLSIQSFDDGDYFPVWGTCLGFEELSLLISGECLLTATDTVDVAMPLNFTGGQLHSRMFQNFPTELLLSLAVEPLTANFHKWSLSVKNFTMNEKLKKFFNVLTTNTDGKIEFISTMEGYKYPVYGVQWHPEKAPYEWKNLDGISHAPNAVNPAFYLAEFFVNEARKKNHHFKSESEEEKALIYQFSPIYTGNISSFQQCYIFD |  | 1000 ± 72^a nmol 4-NH2-10-CH3PteGlu2 hydrolyzed/min/mg protein | had activity | 18.1 ± 0.4 | 1.1 ± 0.3 nmol 4-NH2-10-CH3PteGlu2 hydro |  | 
